# Data reported in patent US20180236141A1.
# Target: integrin α2β1 on platelets (UniProt P17301)
# Assay: cell-based or functional assay
substance,measurement,value
Collagen type I (ligand),platelet aggregation,> 90%
